Assay results as given in IntAct's records for PubMed 29954986.

B1: Protein patched homolog 1 (Homo sapiens), Q13635-1 (parent)
chain: MASAGNAAEPQDRGGGGSGCIGAPGRPAGGGRRRRTGGLRRAAAPDRDYLHRPSYCDAAFALEQISKGKATGRKAPLWLRAKFQRLLFKLGCYIQKNCGKFLVVGLLIFGAFAVGLKAANLETNVEELWVEVGGRVSRELNYTRQKIGEEAMFNPQLMIQTPKEEGANVLTTEALLQHLDSALQASRVHVYMYNRQWKLEHLCYKSGELITETGYMDQIIEYLYPCLIITPLDCFWEGAKLQSGTAYLLGKPPLRWTNFDPLEFLEELKKINYQVDSWEEMLNKAEVGHGYMDRPCLNPADPDCPATAPNKNSTKPLDMALVLNGGCHGLSRKYMHWQEELIVGGTVKNSTGKLVSAHALQTMFQLMTPKQMYEHFKGYEYVSHINWNEDKAAAILEAWQRTYVEVVHQSVAQNSTQKVLSFTTTTLDDILKSFSDVSVIRVASGYLLMLAYACLTMLRWDCSKSQGAVGLAGVLLVALSVAAGLGLCSLIGISFNAATTQVLPFLALGVGVDDVFLLAHAFSETGQNKRIPFEDRTGECLKRTGASVALTSISNVTAFFMAALIPIPALRAFSLQAAVVVVFNFAMVLLIFPAILSMDLYRREDRRLDIFCCFTSPCVSRVIQVEPQAYTDTHDNTRYSPPPPYSSHSFAHETQITMQSTVQLRTEYDPHTHVYYTTAEPRSEISVQPVTVTQDTLSCQSPESTSSTRDLLSQFSDSSLHCLEPPCTKWTLSSFAEKHYAPFLLKPKAKVVVIFLFLGLLGVSLYGTTRVRDGLDLTDIVPRETREYDFIAAQFKYFSFYNMYIVTQKADYPNIQHLLYDLHRSFSNVKYVMLEENKQLPKMWLHYFRDWLQGLQDAFDSDWETGKIMPNNYKNGSDDGVLAYKLLVQTGSRDKPIDISQLTKQRLVDADGIINPSAFYIYLTAWVSNDPVAYAASQANIRPHRPEWVHDKADYMPETRLRIPAAEPIEYAQFPFYLNGLRDTSDFVEAIEKVRTICSNYTSLGLSSYPNGYPFLFWEQYIGLRHWLLLFISVVLACTFLVCAVFLLNPWTAGIIVMVLALMTVELFGMMGLIGIKLSAVPVVILIASVGIGVEFTVHVALAFLTAIGDKNRRAVLALEHMFAPVLDGAVSTLLGVLMLAGSEFDFIVRYFFAVLAILTILGVLNGLVLLPVLLSFFGPYPEVSPANGLNRLPTPSPEPPPSVVRFAMPPGHTHSGSDSSDSEYSSQTTVSGLSEELRHYEAQQGAGGPAHQVIVEATENPVFAHSTVVHPESRHHPPSNPRQQPHLDSGSLPPGRQGQQPRRDPPREGLWPPPYRPRRDAFEISTEGHSGPSNRARWGPRGARSHNPRNPASTAMGSSVPGYCQPITTVTASASVTVAVHPPPVPGPGRNPRGGLCPGYPETDHGLFEDPHVPFHVRCERRDSKVEVIELQDVECEERPRGSSSN

Variants of: B1
Conditions: with shh_human SHH

Variant	effect of a mutation on the interaction
T500F;P504L	disrupting interaction
L282Q	disrupting interaction
G509V	disrupting interaction
L282Q;T500F;P504L	disrupting interaction
D513Y	disrupting interaction
